Test results reported in paper PMC5705538 (Journal of molecular biology, 2017).
Values joined by “and” are separate entries in the source; they are usually repeats but may differ in a detail not shown here. Equal entries are not always repeated.

Columns and labels:
SEC-MALS = biological target: the molecule itself; assay: SEC-MALS
M1-linked di-ubiquitin = M1-linked di-ubiquitin (UniProt P0CG48 1-76; P0CG48 1-76); assay: SEC

B1: NEMO (112–350) (domain or fragment, human, UniProt Q9Y6K9 112-350, looked up)
chain: LDLKRQKEQALREVEHLKRCQQQMAEDKASVKAQVTSLLGELQESQSRLEAATKECQALEGRARAASEQARQLESEREALQQQHSVQVDQLRMQGQSVEAALRMERQAASEEKRKLAQLQVAYHQLFQEYDNHIKSSVVGSERKRGMQLEDLKQQLQQAEEALVAKQEVIDKLKEEAEQHKIVMETVPVLKAQADIYKADFQAERQAREKLAEKKELLQEQLEQLQREYSKLKASCQES
With B1 the “stoichiometry N” value (SEC-MALS) was 2.

B2: NEMO UBAN-ZF (246–419) (domain or fragment, human, UniProt Q9Y6K9 246-419, looked up)
chain: KSSVVGSERKRGMQLEDLKQQLQQAEEALVAKQEVIDKLKEEAEQHKIVMETVPVLKAQADIYKADFQAERQAREKLAEKKELLQEQLEQLQREYSKLKASCQESARIEDMRKRHVEVSQAPLPPAPAYLSSPLALPSQRRSPPEEPPDFCCPKCQYQAPDMDTLQIHVMECIE
B2: binds (M1-linked di-ubiquitin).

B3: NEMO UBAN (192–350) (domain or fragment, human, UniProt Q9Y6K9 192-350, looked up)
chain: QQQHSVQVDQLRMQGQSVEAALRMERQAASEEKRKLAQLQVAYHQLFQEYDNHIKSSVVGSERKRGMQLEDLKQQLQQAEEALVAKQEVIDKLKEEAEQHKIVMETVPVLKAQADIYKADFQAERQAREKLAEKKELLQEQLEQLQREYSKLKASCQES
B3: binds (M1-linked di-ubiquitin).

B4: NEMO (150–350) (domain or fragment, human, UniProt Q9Y6K9 150-350, looked up)
chain: LGELQESQSRLEAATKECQALEGRARAASEQARQLESEREALQQQHSVQVDQLRMQGQSVEAALRMERQAASEEKRKLAQLQVAYHQLFQEYDNHIKSSVVGSERKRGMQLEDLKQQLQQAEEALVAKQEVIDKLKEEAEQHKIVMETVPVLKAQADIYKADFQAERQAREKLAEKKELLQEQLEQLQREYSKLKASCQES
B4 was tested, and the binding result (M1-linked di-ubiquitin) was “binds” and the “stoichiometry N” value (SEC-MALS) was 2 and 4.
